The values that follow come from US10308712B2, “Antibodies that bind human cannabinoid 1 (CB1) receptor” (priority 2014, dated 2019).

Where a chain is given by its changes, count along the chain named.

The target in test [1] is T1, human CB1 expressing TRex-CHO cells (Homo sapiens, UniProt P21554).
T1 construct: pcDNA4/TO native full length human CB1 receptor construct was transfected into tetracycline inducible system Trex-CHO and Trex-293 cells; expressed in transfected cells
The class given is cell-based.

For test [2], the target named is T2, CB1 TRex-CHO cells (Homo sapiens, UniProt P21554).
T2 construct: pcDNA4/TO native full length human CB1 receptor construct was transfected into tetracycline inducible system Trex-CHO and Trex-293 cells; expressed in transfected cells
The class given is cell-based. Particulars: antibody 300 nM, 1 hour.

Test [3] has as its target Mouse CB1 (Mus musculus, UniProt P47746). Put plainly: Flow cytometry (FACS) cross-reactivity, mouse CB1 cells. Particulars: in words. (In general: In flow cytometry, cells or beads pass a laser one at a time.)
Test [4] deals with TRex CHO parental cells. Put plainly: Flow cytometry (FACS) binding, parental cells. Particulars: in words.
Test [5] has as its target human CB2 (Homo sapiens, UniProt P34972). Nature of the test: Flow cytometry (FACS) selectivity, human CB2 cells. Particulars: in words.
In test [6] the test system is Trex-CHO CB1 receptor cells, WIN55,212 induced ERK phosphorylation. Nature of the test: ERK activation assay (western blot). Particulars: IgG 300 nM, WIN55,212 100 nM.

T2 sequence (P21554 whole entry): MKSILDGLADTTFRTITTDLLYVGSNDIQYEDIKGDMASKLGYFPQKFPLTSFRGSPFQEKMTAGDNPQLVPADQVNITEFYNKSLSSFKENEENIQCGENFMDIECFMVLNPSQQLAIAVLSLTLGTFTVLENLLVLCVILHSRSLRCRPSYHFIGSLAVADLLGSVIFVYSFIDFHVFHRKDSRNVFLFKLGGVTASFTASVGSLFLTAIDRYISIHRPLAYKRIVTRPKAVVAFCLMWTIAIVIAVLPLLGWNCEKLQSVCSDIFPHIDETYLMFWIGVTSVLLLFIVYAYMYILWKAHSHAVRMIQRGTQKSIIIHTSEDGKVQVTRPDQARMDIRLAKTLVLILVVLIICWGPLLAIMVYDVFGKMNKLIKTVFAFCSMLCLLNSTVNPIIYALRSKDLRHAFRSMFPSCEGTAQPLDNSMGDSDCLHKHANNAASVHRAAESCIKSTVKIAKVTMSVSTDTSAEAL
T1 sequence (P21554 whole entry): as above
Sequence of Mouse CB1 (P47746 whole entry): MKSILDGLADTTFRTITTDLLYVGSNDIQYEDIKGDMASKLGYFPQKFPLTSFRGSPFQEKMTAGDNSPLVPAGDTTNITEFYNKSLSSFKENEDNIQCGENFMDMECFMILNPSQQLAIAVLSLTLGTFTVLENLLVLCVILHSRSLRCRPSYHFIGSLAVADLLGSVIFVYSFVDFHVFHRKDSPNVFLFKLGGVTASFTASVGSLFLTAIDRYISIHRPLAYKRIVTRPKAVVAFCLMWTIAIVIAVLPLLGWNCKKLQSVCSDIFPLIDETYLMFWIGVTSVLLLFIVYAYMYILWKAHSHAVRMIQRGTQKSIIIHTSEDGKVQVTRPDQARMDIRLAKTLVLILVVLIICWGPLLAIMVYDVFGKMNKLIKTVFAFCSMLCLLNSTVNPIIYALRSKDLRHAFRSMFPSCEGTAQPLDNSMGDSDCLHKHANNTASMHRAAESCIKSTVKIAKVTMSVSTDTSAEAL
Sequence of human CB2 (P34972 whole entry): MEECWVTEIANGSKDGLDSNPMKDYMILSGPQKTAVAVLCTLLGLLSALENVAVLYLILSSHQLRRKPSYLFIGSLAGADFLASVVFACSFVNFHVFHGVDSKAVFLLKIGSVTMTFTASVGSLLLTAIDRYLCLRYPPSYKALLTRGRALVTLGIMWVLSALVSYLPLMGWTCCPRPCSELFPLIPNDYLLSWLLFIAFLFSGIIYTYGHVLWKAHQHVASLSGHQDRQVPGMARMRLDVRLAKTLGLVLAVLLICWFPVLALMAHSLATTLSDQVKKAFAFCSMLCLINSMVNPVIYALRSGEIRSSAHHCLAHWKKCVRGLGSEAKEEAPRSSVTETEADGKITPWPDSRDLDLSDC

For `Cc1c(C(=O)NN2CCS(=O)(=O)CC2)nn(-c2ccc(Cl)cc2Cl)c1-c1ccc(C#CCCC#N)cc1` [AM6545, reference compound], in test [1] (1.5 μM or 5 μM forskolin stimulated TRex-CHO CB1 cells, no exogenous agonist), the “effect on cAMP levels” value is “did not affect cAMP levels”.

B1: PA2LR3-P3F8: CB1 antibody (antibody, V domains shown)
VH: EVQLQQSGAELVRPGSSVKISCKASGYAFSNYWMNWVKQRPGQGLEWIGQIYPGDGDTNYNGNFKGKATLTADKSSSTAYMQLSSLTSEDSAVYFCARSHGNYFPYWGQGTLVTVSA
VL: DIVLTQSPAIMSASLGERVTMTCTASSSVSSSYLHWYQQKPGSSPKLWIYSTSNLASGVPARFSGSGSGTSYSLTISSMEAEDAATYYCQQWSSYPLTFGAGTKLELK
modifications: PA2LR3-P3F8 Heavy Chain Variable Region; PA2LR3-P3F8 Light Chain Variable Region
notes: CB1 antibody
For B1, in test [2], the “induction of CB1 receptor internalization by the substance alone” value (“induction” for short) is listed as “do not induce”.

B2: PA2LR3-P4B5: CB1 antibody; HC variable SEQ ID NO: 26, LC variable SEQ ID NO: 30 (antibody, V domains shown)
VH: B1 VH with N31Y, N61S, N63R, M81I
VL: B1 VL with T5N, Q90H, W92Y, S93H, S94R, Y95S, L107I
modifications: PA2LR3- P4B5 Heavy chain variable region; PA2LR3- P4B5 Light chain variable region
With B2, the “induction” value in test [2] is on record as “do not induce”.

B3: PA2LR3-P5E7: CB1 antibody (antibody, V domains shown)
VH: B1 VH with Y60F, N63K, K67R, T69I, K74I, S77N
VL: DIVLTQSPTTMAASPGEKITITCSASSSISSNYLHWYQQKPGFSPKLLIYRTSTLASGVPARFSGSGSGTSYSLTISSMEAEDAATYYCHQYHRSPHTFGSGTKLEIK
modifications: PA2LR3-P5E7 Heavy Chain Variable region; PA2LR3-P5E7 Light Chain Variable region
notes: CB1 antibody
As to B3, in test [2], the “induction” value is given as “do not induce”.

B4: PA2LR3-P6G7: HC variable SEQ ID NO: 58, LC variable SEQ ID NO: 62; potential agonist IgG (antibody, V domains shown)
VH: B1 VH with Y27F, Y60F, N63K, K67R, T69I, K74I, S77N
VL: B1 VL with Q90H, W92H, S93H, S94R, Y95S, L97P
modifications: PA2LR3-P6G7 Heavy chain variable region; PA2LR3-P6G7 Light chain variable region
As to B4, the “induction” value in test [2] was “do not induce”.

B5: PA2LR3-P4B1: HC variable SEQ ID NO: 42, LC variable SEQ ID NO: 46; potential agonist IgG (antibody, V domains shown)
VH: B1 VH with Y27F, Y60F, N63K, K67R, T69I, K74I, S77N
VL: B1 VL with D1Q, Q90H, W92Y, S93H, S94R, Y95S
modifications: PA2LR3-P4B1 Heavy chain variable region; PA2LR3-P4B1 Light chain variable region
Consider B5, for which the “induction” value in test [2] is listed as “do not induce”.

B6: 36E12B6C2: hybridoma-derived anti-CB1 antibody; HC variable SEQ ID NO: 18, LC variable SEQ ID NO: 22 (antibody, listed as Mus sp., V domains shown)
VH: QVQLQQSGAELVRPGSSVKISCKASGYEFSYYWMNWVKQRPGQGLQWIGQIYPGDGDTNYNGKFKGKATLTADKSSSTAYMHLTSLTSEDSAVYFCARSGGNPFAFWGQGTLVTVSA
VL: DIQMTQTSSSLSASLGDRVTFSCRASQDISNYLNWYQQKPDGTVKLLIYYTSRLHSGVTSRFRGSGSGTDYSLTISNLEQEDVATYFCQQGHTLPWSFGGGTKLEIK
For the molecule B6, the “cross-activity / cross-reactivity Mouse CB1” value in test [3] is “do not have cross-activity”. Besides, the “binding to parental TRex CHO” value in test [4] is reported as “not parental TRex CHO”. Besides, the “cross-activity / selectivity human CB2” value in test [5] is recorded as “do not have cross-activity”. For the same molecule, the “mechanism (inverse agonist or neutral antagonist)” value in test [1] (5 μM forskolin, no agonist (Example 11)) is listed as “inverse agonists”. Moreover, the “blocking of WIN55,212 induced ERK phosphorylation” value in test [6] was “blocked”.

B7: PA2LR3-P3A8: CB1 antibody (antibody, V domains shown)
VH: B1 VH with N31Y, N63K, F64V, P105A
VL: B1 VL with L4M, Y95N
modifications: PA2LR3-P3A8 Heavy Chain Variable Region; PA2LR3-P3A8 Light Chain Variable Region
notes: CB1 antibody
B7: the “induction” value in test [2] was “do not induce”.

B8: PA2LR3-P4C6: CB1 receptor binding IgG clone (antibody, V domains shown)
VH: B1 VH with N31Y, N63K
VL: B1 VL with L4I, M11V, L107I
modifications: PA2LR3-P4C6 Heavy Chain Variable region; PA2LR3-P4C6 Light Chain Variable region
As to B8, the “induction” value in test [2] was “do not induce”.

B9: PA2LR3-P6B12: HC variable SEQ ID NO: 50, LC variable SEQ ID NO: 54; potential allosteric modulator (antibody, V domains shown)
VH: B1 VH with N31Y, N63K, P105A
VL: B1 VL with D1Q, Q90H, W92Y, S93H, S94R, Y95S, T98A
modifications: PA2LR3-P6B12 Heavy chain variable region; PA2LR3-P6B12 Light chain variable region
For the molecule B9, the “induction” value in test [2] is reported as “do not induce”.

B10: PA2LR3-P4G10: CB1 receptor binding IgG clone (antibody, V domains shown)
VH: B1 VH with S7F, N31Y, N63K, P105A
VL: B1 VL with Y95N
modifications: PA2LR3-P4G10 Heavy Chain Variable region; PA2LR3-P4G10 Light Chain Variable region
As for B10, the “induction” value in test [2] was “do not induce”.
